From the RNAGym collection of RNA variant scans (doi:10.7554/elife.90254)

B1: LINE1-mini (parent)
chain: GGCAGAGCUCAACACAGCGUGGCAAAGUGGCUGUGGCUAGACUGCC

Variants of: B1
Experiment: self-cleavage, relative activity (ratio to wild type); higher = more cleavage; in vitro, sequencing; the parent is a self-cleaving ribozyme

Row | Variant | self-cleavage
1 | GGCAGAGCUCAACACAGCUUGGCAAAGUGUCUGUGGCUAGACUGCC [G19U G30U] | 1.11
2 | GGCAGAGCUCACCACAGCGUGCCAAAGUGGCUGUGGCUAGACUGCC [A12C G22C] | 0.02
3 | GGCAGAGCUCAACACAGCGUGGCAAAGUGGGUGUGGCUAGACCGCC [C31G U43C] | 0.05
4 | GGCAAAGCUCAACAUAGCGUGGCAAAGUGGCUGUGGCUAGACUGCC [G5A C15U] | 0.11
5 | GGCAGAGCUCAACACAGCGUGGCUAAGUGGCUGUAGCUAGACUGCC [A24U G35A] | 0.12
6 | GGCAGAGCUUAACACAGAGUGGCAAAGUGGCUGUGGCUAGACUGCC [C10U C18A] | 0.28
7 | GGCGGGGCUCAACACAGCGUGGCAAAGUGGCUGUGGCUAGACUGCC [A4G A6G] | 0.11
8 | AGCAGAGCUCAACUCAGCGUGGCAAAGUGGCUGUGGCUAGACUGCC [G1A A14U] | 0.27
9 | CGCAGAGCUCAACACAGCGUGGCAAAGUGGCUGUGGCUAGACUGGC [G1C C45G] | 0.16
10 | GUCACAGCUCAACACAGCGUGGCAAAGUGGCUGUGGCUAGACUGCC [G2U G5C] | 0.04
11 | GGCAGAGCUCAACACGGCGUGGAAAAGUGGCUGUGGCUAGACUGCC [A16G C23A] | 0.56
12 | CGCAGAGCUCAACACAGCGUGGCAAAGUGGCUGUGUCUAGACUGCC [G1C G36U] | 0.03
13 | GGCAGAGCUCACCACAGCGCGGCAAAGUGGCUGUGGCUAGACUGCC [A12C U20C] | 0.01
14 | GGCAGAGCUCAACACAGCGUGGCAAAGUCGCUGUGGCGAGACUGCC [G29C U38G] | 0.02
15 | GGCAGAGCUCAACACAGCGUGGCAAGGUGGCUGUGGCUAGAAUGCC [A26G C42A] | 0.08
16 | GGCAGAGCUCAACACAGCGUGGCAAAGUGGCUUUGGCUAGACUACC [G33U G44A] | 0.07
17 | GGCAGAGCUCAACACUGCGUGGCAAAGUGGCUGUGGCUAGAGUGCC [A16U C42G] | 0.07
18 | GGCAGCGCUCAACAAAGCGUGGCAAAGUGGCUGUGGCUAGACUGCC [A6C C15A] | 0.1
19 | GGCAGAGCUCAACACAGCGUGGCAAAAUGGCUGUCGCUAGACUGCC [G27A G35C] | 0.12

Row | Variant | self-cleavage
20 | GGCAGAGCUCAAAACAGCGUGGCAAAGUGGCUGUGGCUAGGCUGCC [C13A A41G] | 0.12
21 | GGCAGAGCACAACACAGCGUGGCAAAGUGGCUGUGGCUAGACUGAC [U9A C45A] | 0.31
22 | GGCAGAGCUCAACACAGCGUGGCAAAGUGUCUGUGGCUAGGCUGCC [G30U A41G] | 0.35
23 | GGCAGAGCUCUACACAGCGUGGCAAAGUGGCGGUGGCUAGACUGCC [A11U U32G] | 0.03
24 | GGCAGAGCUCAAAACAGCGUGGCAAAGUGGCUGUGGCUAGACUGCA [C13A C46A] | 0.07
25 | GGCAGAGCACAACACAGCGUGGCAAAGUGGCGGUGGCUAGACUGCC [U9A U32G] | 0.19
26 | GGCAGCGCUCAACACAGCGUGGCAAAGUGGCUGUGGCUAGAUUGCC [A6C C42U] | 0.23
27 | GGCAGAGCUCAACACAGCGUGGCAAAGUGGCUCUGGCCAGACUGCC [G33C U38C] | 0.04
28 | GGCAGAGCUCAACAGAGCGUGGCAAAAUGGCUGUGGCUAGACUGCC [C15G G27A] | 0.05
29 | GGCCGAGCUCAACACAGCGUGGCAAUGUGGCUGUGGCUAGACUGCC [A4C A26U] | 0.11
30 | GGCAGAGCCUAACACAGCGUGGCAAAGUGGCUGUGGCUAGACUGCC [U9C C10U] | 0.04
31 | GGCAGAGCUCAACACAGCGUGGCAAAGGGGCUGUGGCUAGACCGCC [U28G U43C] | 0.08
32 | GGCAGAGCUCAACACAGCGUGGCAGAGUGGCUGUAGCUAGACUGCC [A25G G35A] | 0.11
33 | GGCAGAGCUCAACACAGCGUGGCAGAGUGGCUGUGGCUAGACUGAC [A25G C45A] | 0.86
34 | GGCAGACCUCAACACAGCGCGGCAAAGUGGCUGUGGCUAGACUGCC [G7C U20C] | 0.15
35 | GGCAGAGCUCAACACAGCGUGGCAAAGUGGUGGUGGCUAGACUGCC [C31U U32G] | 0.06
36 | GGCUGAGCUCAACGCAGCGUGGCAAAGUGGCUGUGGCUAGACUGCC [A4U A14G] | 0.15
37 | GGCAGAGCUCAACACAGCGUGGCAAAGUGGCUGUGCCUAGACUCCC [G36C G44C] | 0.11
38 | GGCAGAGCUCAGCACAGCGUGGCAAAGUGGCUGUGGCUUGACUGCC [A12G A39U] | 0.08

Row | Variant | self-cleavage
39 | GGACGAGCUCAACACAGCGUGGCAAAGUGGCUGUGGCUAGACUGCC [C3A A4C] | 0.25
40 | GGCAGAGCUCAACACAGUGUGGCAAAGUGGCUGUGGCUUGACUGCC [C18U A39U] | 0.78
41 | GGCAGAGCUCAACACAGGGUGGCAAAGUGGCUGUGGCUAGACUGCG [C18G C46G] | 0.25
42 | GGCAGAGCUCAACACAGCGUGGCAACGUGGCUGUGGCUAGACGGCC [A26C U43G] | 0.12
43 | GGCAGAGCUCAACACAGCCUGGCACAGUGGCUGUGGCUAGACUGCC [G19C A25C] | 0.5
44 | GGCAGUGCUCAACACAGCGUGGCAAAGUGGCUGUGGCUAGAAUGCC [A6U C42A] | 0.17
45 | GGCAGAGCUCAACACAGCGUGGCAAUGUGGCUUUGGCUAGACUGCC [A26U G33U] | 0.08
46 | UGCAGGGCUCAACACAGCGUGGCAAAGUGGCUGUGGCUAGACUGCC [G1U A6G] | 0.07
47 | GACAGAGCUGAACACAGCGUGGCAAAGUGGCUGUGGCUAGACUGCC [G2A C10G] | 0.11
48 | GGCAGAGCUCAACACAGCGUGGCAAACUGGCGGUGGCUAGACUGCC [G27C U32G] | 0.08
49 | GGCAGCGCUCAACACAGCGUGGCAAAGUGGCUGUGGCUCGACUGCC [A6C A39C] | 0.23
50 | GGCUGAGCUCAACACAGCGUGGCAAAGUGGCUGUGGCUAGACUGUC [A4U C45U] | 0.16
51 | GGCAGAGCUCAACACAGCGUGGCAAAGUGGCAGUGGCUAGACUGGC [U32A C45G] | 0.07
52 | GGCAGAGCUCAACACAGCGUGGCAAAGGGGCUGUGGCUAGACUCCC [U28G G44C] | 0.54
53 | GGCAGAGCUCAACACAGCGUGGCAAAGUGGAUGUCGCUAGACUGCC [C31A G35C] | 0.04
54 | GACAGAGCUCAACACAGCGUGCCAAAGUGGCUGUGGCUAGACUGCC [G2A G22C] | 0.29
55 | GGCAGAGCACAACACAGCGUGGCAAAGUGGCUGCGGCUAGACUGCC [U9A U34C] | 0.18
56 | GGCAGAGCUCAACACAGCGUGGCAAAGUGGCUGUGGCCAGACCGCC [U38C U43C] | 0.11
